Measurements: patent publication US20190060473A1, “HSP90 INHIBITOR DRUG CONJUGATES” (priority 2016, published 2019)
Like-named read-outs stand apart in the source and are kept apart here.

Key:
[1] = test system: HER2 expression in BT-474 human breast cancer cells; experiment: In-Cell Western assay (ICW) for HER2 expression in BT-474 cells; format: cell-based
Description: The HDCs as described herein were used in various experiments to determine their activity and properties, such as binding affinity and stability in blood. An in-Cell Western assay (ICW) for HER2 expression was carried out in BT-474 human breast cancer cells. BT-474 cells were seeded in 96-well plates at a density of 20,000 cells per well. Twenty-four hours after plating, cells were dosed with graded concentrations of HDCs using 3-fold serial dilutions and incubated for 24 h. Growth media containing drug was aspirated off. Cells were then fixed in 4% paraformaldehyde for 20 min and washed three times in 0.1% Triton X-100. After blocking for 1.5 h in Odyssey Blocking Buffer (LI-COR, Lincoln, Nebr., USA), cells were incubated with primary HER2 antibody overnight at 4° C. Wells were washed three times with 0.1% Tween-20 and incubated in secondary antibody (LI-COR, Lincoln, Nebr., USA) and DRAQ5 (CST, Beverly, Mass., USA) for 1 h. Following 3 final washes with 0.1% Tween-20, antibody-antigen complexes were visualized using the Odyssey system. For quantification, HER2 signal was normalized to DRAQ5 flourescent probe.

[2] = Metabolic stability in mouse whole blood (LC-MS/MS); format: in vitro ADME; details: for Mouse blood stability 1 h (% remaining): 10 μM
Description: Metabolic stability of various HDCs was tested in mouse blood. All compounds were tested at a concentration of 10 μM. The time dependent disappearance of test compound in mouse whole blood, and the release of the compound qualitatively as determined by liquid chromatography tandem mass spectrometry (LC-MS/MS), was tested at time points of 15 minutes, 30 minutes, 45 minutes and 1 hour. All compounds were tested in duplicate, and the average was taken. The results in Table 2 show the percent of test compound remaining after 1 hour.

[3] = BT-474 cells, 24 h incubation, 3-fold serial dilutions, HER2 signal normalized to DRAQ5, read-out: HER2 (ICW)
[4] = mouse whole blood, percent of test compound remaining after 1 hour, average of duplicate

SMILES | IC50 [1, 3] | Mouse blood stability 1 h (% remaining) [2, 4] | further results
CCNC(=O)c1nnc(-c2cc(C(C)C)c(O)cc2O)n1-c1ccc(CN2CCC(C(=O)NC3(C(=O)OC[C@@H](NC(=O)c4cc(-c5cc(NC(C)C)ncc5Cl)c[nH]4)c4cccc(Cl)c4)CC3)CC2)c(F)c1 [SDC-TRAP-0507, (S)-2-(4-(5-chloro-2-(isopropylamino)pyridin-4-yl)-1H-pyrrole-2-carboxamido)-2-(3-chlorophenyl)ethyl-(1-(4-(3-(2,4-dihydroxy-5-isopropylphenyl)-5-(ethylcarbamoyl)-4H-1,2,4-triazol-4-yl)-2-fluorobenzyl)piperidine-4-carboxamido)cyclopropanecarboxylate] | 304 nM | 105% | –
CC(C)Nc1cc(-c2c[nH]c(C(=O)N[C@H](COC(=O)C3(NC(=O)CCn4ccc5cc(-n6c(O)nnc6-c6cc(C(C)C)c(O)cc6O)ccc54)CC3)c3cccc(Cl)c3)c2)c(Cl)cn1 [SDC-TRAP-0508, (S)-2-(4-(5-chloro-2-(isopropylamino)pyridin-4-yl)-1H-pyrrole-2-carboxamido)-2-(3-chlorophenyl)ethyl 1-(3-(5-(3-(2,4-dihydroxy-5-isopropylphenyl)-5-hydroxy-4H-1,2,4-triazol-4-yl)-1H-indol-1-yl)propanamido)cyclopropanecarboxylate] | 2330 nM | – | Mouse blood stability 1 h (% remaining) ([2]; mouse, blood, 1 h): 32.4%
CC(C)Nc1cc(-c2c[nH]c(C(=O)N[C@H](COC(=O)C3(NC(=O)C4CCN(Cc5ccc(-n6c(O)nnc6-c6cc(C(C)C)c(O)cc6O)cc5F)CC4)CC3)c3cccc(Cl)c3)c2)c(Cl)cn1 [SDC-TRAP-0509, (S)-2-(4-(5-chloro-2-(isopropylamino)pyridin-4-yl)-1H-pyrrole-2-carboxamido)-2-(3-chlorophenyl)ethyl 1-(1-(4-(3-(2,4-dihydroxy-5-isopropylphenyl)-5-hydroxy-4H-1,2,4-triazol-4-yl)-2-fluorobenzyl)piperidine-4-carboxamido)cyclopropanecarboxylate] | 2690 nM | 86.9% | –
CCNC(=O)c1nnc(-c2cc(C(C)C)c(O)cc2O)n1-c1ccc(CN2CCC(C(=O)N3CCC(CC(=O)OC[C@@H](NC(=O)c4cc(-c5cc(NC(C)C)ncc5Cl)c[nH]4)c4cccc(Cl)c4)CC3)CC2)c(F)c1 [SDC-TRAP-0512, (S)-2-(4-(5-chloro-2-(isopropylamino)pyridin-4-yl)-1H-pyrrole-2-carboxamido)-2-(3-chlorophenyl)ethyl 2-(1-(1-(4-(3-(2,4-dihydroxy-5-isopropylphenyl)-5-(ethylcarbamoyl)-4H-1,2,4-triazol-4-yl)-2-fluorobenzyl)piperidine-4-carbonyl)piperidin-4-yl)acetate] | 60 nM | 100% | –
CCNC(=O)c1nnc(-c2cc(C(C)C)c(O)cc2O)n1-c1ccc(CN2CCC(C(=O)NC(C)(C)C(=O)OC[C@@H](NC(=O)c3cc(-c4cc(NC(C)C)ncc4Cl)c[nH]3)c3cccc(Cl)c3)CC2)c(F)c1 [SDC-TRAP-0514, (S)-2-(4-(5-chloro-2-(isopropylamino)pyridin-4-yl)-1H-pyrrole-2-carboxamido)-2-(3-chlorophenyl)ethyl 2-(1-(4-(3-(2,4-dihydroxy-5-isopropylphenyl)-5-(ethylcarbamoyl)-4H-1,2,4-triazol-4-yl)-2-fluorobenzyl)piperidine-4-carboxamido)-2-methylpropanoate] | 345 nM | 105% | –
CC(C)Nc1cc(-c2c[nH]c(C(=O)N[C@H](COC(=O)C3CCN(Cc4ccc(-n5c(O)nnc5-c5cc(C(C)C)c(O)cc5O)cc4F)CC3)c3cccc(Cl)c3)c2)c(Cl)cn1 [SDC-TRAP-0517, (S)-2-(4-(5-chloro-2-(isopropylamino)pyridin-4-yl)-1H-pyrrole-2-carboxamido)-2-(3-chlorophenyl)ethyl 1-(4-(3-(2,4-dihydroxy-5-isopropylphenyl)-5-hydroxy-4H-1,2,4-triazol-4-yl)-2-fluorobenzyl)piperidine-4-carboxylate] | 202 nM | – | –
CCNC(=O)c1nnc(-c2cc(C(C)C)c(O)cc2O)n1-c1ccc(CN2CCC(C(=O)OC[C@@H](NC(=O)c3cc(-c4cc(NC(C)C)ncc4Cl)c[nH]3)c3cccc(Cl)c3)CC2)c(F)c1 [SDC-TRAP-0518, (S)-2-(4-(5-chloro-2-(isopropylamino)pyridin-4-yl)-1H-pyrrole-2-carboxamido)-2-(3-chlorophenyl)ethyl 1-(4-(3-(2,4-dihydroxy-5-isopropylphenyl)-5-(ethylcarbamoyl)-4H-1,2,4-triazol-4-yl)-2-fluorobenzyl)piperidine-4-carboxylate] | 104 nM | – | –
CC(C)Nc1cc(-c2c[nH]c(C(=O)N[C@H](COC(=O)[C@@H](C)NC(=O)C3CCN(Cc4ccc(-n5c(O)nnc5-c5cc(C(C)C)c(O)cc5O)cc4F)CC3)c3cccc(Cl)c3)c2)c(Cl)cn1 [SDC-TRAP-0519] | 1650 nM | – | –
CCNC(=O)c1nnc(-c2cc(C(C)C)c(O)cc2O)n1-c1ccc(N(C)C2CCN(C(=O)CCC(=O)OC[C@H](O)Cn3cnc4c(c(Nc5ccc(I)cc5F)c(F)c(=O)n4C)c3=O)CC2)nc1 [SDC-TRAP-0525, (R)-3-(6-fluoro-5-((2-fluoro-4-iodophenyl)amino)-8-methyl-4,7-dioxo-7,8-dihydropyrido[2,3-d]pyrimidin-3(4H)-yl)-2-hydroxypropyl 4-(4-((5-(3-(2,4-dihydroxy-5-isopropylphenyl)-5-(ethylcarbamoyl)-4H-1,2,4-triazol-4-yl)pyridin-2-yl)(methyl)amino)piperidin-1-yl)-4-oxobutanoate] | – | 10.8% | –
CC(C)c1cc(-c2nnc(O)n2-c2ccc(CN3CCC(C(=O)N4CC[C@H](C(=O)OC[C@H](O)Cn5cnc6c(c(Nc7ccc(I)cc7F)c(F)c(=O)n6C)c5=O)C4)CC3)c(F)c2)c(O)cc1O [SDC-TRAP-0528] | – | 0% | –
CCNC(=O)c1nnc(-c2cc(C(C)C)c(O)cc2O)n1-c1ccc(C(=O)N[C@H](C(=O)N[C@@H](CC(C)C)C(=O)N(C)[C@@H](C(=O)N[C@H](C(=O)N(C)C([C@@H](C)CC)[C@@H](CC(=O)N2CCC[C@@H]2[C@@H](OC)[C@@H](C)C(=O)N[C@@H](C)[C@H](O)c2ccccc2)OC)C(C)C)C(C)C)C(C)C)cc1 (stereo partly drawn) [SDC-TRAP-0538, 4-(4-(((3R,7S,10R,13S,16S)-4-((S)-sec-butyl)-3-(2-((R)-2-((1S,2R)-3-(((1R,2S)-1-hydroxy-1-phenylpropan-2-yl)amino)-1-methoxy-2-methyl-3-oxopropyl)pyrrolidin-1-yl)-2-oxoethyl)-13-isobutyl-7,10-diisopropyl-5,11,17-trimethyl-6,9,12,15-tetraoxo-2-oxa-5,8,11,14-tetraazaoctadecan-16-yl)carbamoyl)phenyl)-5-(2,4-dihydroxy-5-isopropylphenyl)-N-ethyl-4H-1,2,4-triazole-3-carboxamide] | – | – | remaining at 1 h, 10 μM [2, 4]: 118%
CCNC(=O)c1nnc(-c2cc(C(C)C)c(O)cc2O)n1-c1ccc(C(=O)N[C@@H](CC(C)C)C(=O)N[C@@H](CC(C)C)C(=O)N(C)[C@@H](C(=O)N[C@H](C(=O)N(C)C([C@@H](C)CC)[C@@H](CC(=O)N2CCC[C@@H]2[C@@H](OC)[C@@H](C)C(=O)N[C@@H](C)[C@H](O)c2ccccc2)OC)C(C)C)C(C)C)cc1 (stereo partly drawn) [SDC-TRAP-0539, 4-(4-(((3R,7S,10R,13S,16S)-4-((S)-sec-butyl)-3-(2-((R)-2-((1S,2R)-3-(((1R,2S)-1-hydroxy-1-phenylpropan-2-yl)amino)-1-methoxy-2-methyl-3-oxopropyl)pyrrolidin-1-yl)-2-oxoethyl)-13-isobutyl-7,10-diisopropyl-5,11,18-trimethyl-6,9,12,15-tetraoxo-2-oxa-5,8,11,14-tetraazanonadecan-16-yl)carbamoyl)phenyl)-5-(2,4-dihydroxy-5-isopropylphenyl)-N-ethyl-4H-1,2,4-triazole-3-carboxamide] | – | – | remaining at 1 h, 10 μM [2, 4]: 106%
CCNC(=O)c1nnc(-c2cc(C(C)C)c(O)cc2O)n1-c1ccc(C(=O)N[C@H](C(=O)N[C@@H](CCCNC(N)=O)C(=O)N(C)[C@@H](C(=O)N[C@H](C(=O)N(C)C([C@@H](C)CC)[C@@H](CC(=O)N2CCC[C@@H]2[C@@H](OC)[C@@H](C)C(=O)N[C@@H](C)[C@H](O)c2ccccc2)OC)C(C)C)C(C)C)C(C)C)cc1 (stereo partly drawn) [SDC-TRAP-0540, 4-(4-(((3R,7S,10R,13S,16S)-4-((S)-sec-butyl)-3-(2-((R)-2-((1S,2R)-3-(((1R,2S)-1-hydroxy-1-phenylpropan-2-yl)amino)-1-methoxy-2-methyl-3-oxopropyl)pyrrolidin-1-yl)-2-oxoethyl)-7,10-diisopropyl-5,11,17-trimethyl-6,9,12,15-tetraoxo-13-(3-ureidopropyl)-2-oxa-5,8,11,14-tetraazaoctadecan-16-yl)carbamoyl)phenyl)-5-(2,4-dihydroxy-5-isopropylphenyl)-N-ethyl-4H-1,2,4-triazole-3-carboxamide] | – | – | remaining at 1 h, 10 μM [2, 4]: 55.5%
CC(C)c1cc(-c2n[nH]c(=O)n2-c2ccc3c(ccn3C)c2)c(O)cc1O [ganetespib, reference compound] | – | – | IC50 ([1]; Homo sapiens, BT-474, 24 h, read-out: HER2 (ICW, nM)): 37 nM
